Experimental data from patent US20110289605A1, “Animal Model for Osteoarthritis and Intervertebral Disc Disease” (THE UNIVERSITY OF ROCHESTER, priority 2008, published 2011).
“Also recorded” adds a separate entry of the source.

Columns and labels:
[1] = tested on: IVD cells of Col2a1-CreER^T2;R26R transgenic mice; test: TM-induced Cre-recombination in intervertebral disc (IVD) cells, X-Gal staining; type: in vivo, mouse; conditions: TM to 2-week-old mice, X-Gal staining at 1 month of age; listed as TM
Protocol: Since chondrocyte-specific β-catenin cAct mice (targeted by Col2a1-Cre transgenic mice) are embryonic lethal, to target intervertebral disc (IVD) cells (Col2a1-positive cell population) in postnatal and adult mice, the Col2a1-CreER^T2;R26R transgenic mice were used. Cre-recombination efficiency in IVD cells was determined in postnatal mice. TM (1 mg/10 g body weight, i.p., ×5 days) was administered into 2-week-old Col2a1-CreER^T2;R26R transgenic mice. Mice were sacrificed at 1 month of age and X-Gal staining was performed.

[2] = tested on: Col2a1-CreER^T2;R26R mice; test: TM-induced Cre-recombination in articular and growth plate chondrocytes, X-Gal staining; type: in vivo, mouse; conditions: for Cre-recombination efficiency in articular chondrocytes: n=3
Protocol: Col2a1-CreER^T2 transgenic mice were bred with Rosa26 reporter mice. Methods for mouse genotyping including primer sequences are the same as described previously (Chen et al., Genesis 45:44-50 (2007); Zhu et al., Osteoarthr. Cartilage 16:129-30 (2008)). Tamoxifen (TM, 1 mg/10 g body weight/day, i.p. injection, ×5 days) was administered to the 3- and 6-month-old mice, which were sacrificed 2 months after TM induction at the age of 5 and 8 months. Cre-recombination efficiency was evaluated by X-Gal staining. Nuclear Fast Red staining was performed as a counter stain. β-catenin^fx(Ex3)/fx(Ex3) mice were originally reported by Harada et al (Harada et al., Embo J. 18:5931-42 (1999)). The sequences of PCR primers for genotyping β-catenin^fx(Ex3)/fx(Ex3) mice are: upper primer, 5′-[…]-3′ (SEQ ID NO:10) and lower primer, 5′-[…]-3′ (SEQ ID NO:11). The 412-bp PCR product was detected in wild-type mice, and the 645-bp PCR product was detected in homozygous β-catenin^fx(Ex3)/fx(Ex3) mice. In heterozygous mice (β-catenin^fx(Ex3)/wt), both 412 and 645-bp PCR products were detected. The Col2a1-CreER^T2;β-catenin^fx(Ex3)/w transgenic mice and their Cre-negative littermates were used as controls and were administered TM as the experimental animals for phenotype analysis and cellular function studies.
In the present study, TM-induced Cre-recombination in fully developed growth-plate cartilage was investigated. Thus, creating the possibility of completely separating the role of a specific gene in articular chondrocytes from its potential effect on the growth plate cartilage, which may indirectly affect the function of articular cartilage. Col2a1-CreER^T2 transgenic mice were bred with Rosa26 reporter mice (Soriano, Nat. Genet. 21:70-71 (1999); Mao et al., Proc. Natl. Acad. Sci. USA 96:5037-42 (1999)). TM induction was performed in the 3- and 6-month-old Col2a1-CreER^T2;R26R mice. Mice were then sacrificed 2 months after TM induction at the age of 5 and 8 months and Cre-recombination efficiency was evaluated by X-Gal staining.

[3] = tested on: RCS chondrogenic cell line; test: Wnt3a treatment of RCS cells, Mmp-13 mRNA expression; type: cell-based; conditions: 24 and 48 hours
Protocol: Total RNA extracted from primary articular chondrocytes, articular cartilage tissue, or primary disc cells was prepared using Trizol (Invitrogen; Carlsbad, Calif.) according to the manufacturer's protocol. One microgram total RNA was used to synthesize cDNA by iScripts cDNA Synthesis Kit (Bio-Rad; Hercules, Calif.).
(§1) To determine the signaling mechanism through which β-catenin regulates Mmp-13 gene expression, in vitro studies using a RCS chondrogenic cell line were performed. […] A putative Runx2 binding site was identified within the 3.4 kb region of the Mmp-13 promoter.

[4] = tested on: 3.4 kb mouse Mmp-13 promoter; test: Mmp-13 promoter activity; type: cell-based
Protocol: as §1

[5] = tested on: RCS chondrogenic cell line; test: Wnt3a treatment, Runx2 protein expression (Western blot); type: cell-based; conditions: 0-48 hours
Protocol: as §1

Question: Which results are given for CC/C(=C(\c1ccccc1)c1ccc(OCCN(C)C)cc1)c1ccccc1 [Tamoxifen]?
Answer: Cre-recombination efficiency in IVD cells [1]: high efficiency of Cre-recombination in annulus fibrosus cells and endplate cartilage cells but not in nucleus pulposus cells; also recorded: High Cre-recombination efficiency was observed in annulus fibrosus (AF) cells and endplate cartilage (EC) cells but not nucleus pulposus (NP) cells; Cre-recombination efficiency in growth plate chondrocytes ([2]; TM administered in 3- and 6-month-old mice, 2 months after induction): less than 20%; Cre-recombination efficiency in articular chondrocytes ([2]; TM administered in 3-month-old mice, X-Gal staining 2 months after induction (5-month-old)): 84%; Cre-recombination efficiency in articular chondrocytes ([2]; TM administered in 6-month-old mice, X-Gal staining 2 months later (8-month-old)): 76%

B1: Wnt3a: canonical Wnt ligand (protein, UniProt P56704 19-352, looked up)
Protein Wnt-3a: SYPIWWSLAVGPQYSSLGSQPILCASIPGLVPKQLRFCRNYVEIMPSVAEGIKIGIQECQHQFRGRRWNCTTVHDSLAIFGPVLDKATRESAFVHAIASAGVAFAVTRSCAEGTAAICGCSSRHQGSPGKGWKWGGCSEDIEFGGMVSREFADARENRPDARSAMNRHNNEAGRQAIASHMHLKCKCHGLSGSCEVKTCWWSQPDFRAIGDFLKDKYDSASEMVVEKHRESRGWVETLRPRYTYFKVPTERDLVYYEASPNFCEPNPETGSFGTRDRTCNVSSHGIDGCDLLCCGRGHNARAERRREKCRCVFHWCCYVSCQECTRVYDVHTCK
Question: How did the “Mmp-13 mRNA expression” value [3] turn out when B1 was run?
Answer: significantly increased; also recorded: stimulated Mmp-13 expression

Question: What about the “Mmp-13 promoter activity, Runx2 binding site mutated” value ([4]; mutation of the Runx2 binding site in the promoter) of the same molecule?
Answer: completely blocked the stimulatory effect; also recorded: completely abolished

Question: And the Mmp-13 promoter activity ([4]; wild-type 3.4 kb promoter)?
Answer: stimulated Mmp-13 promoter activity

Question: What about the Runx2 protein expression [5] of the same molecule?
Answer: stimulated Runx2 protein expression in a time-dependent manner

Question: What about the Runx2 protein expression ([5]; listed as Wnt3a2) of the same molecule?
Answer: significantly up regulated
